Measurements from paper PMC7229662 (Proceedings of the National Academy of Sciences of the …, 2020).

Target: the molecule itself
Assay: cryo-EM structure

B1: C331S variant of polycystin-2 (residues 53 to 792) (natural protein, human, UniProt Q13563 53-792, looked up)
chain: EIEMQRIRQAAARDPPAGAAASPSPPLSSCSRQAWSRDNPGFEAEEEEEEVEGEEGGMVVEMDVEWRPGSRRSAASSAVSSVGARSRGLGGYHGAGHPSGRRRRREDQGPPCPSPVGGGDPLHRHLPLEGQPPRVAWAERLVRGLRGLWGTRLMEESSTNREKYLKSVLRELVTYLLFLIVLCILTYGMMSSNVYYYTRMMSQLFLDTPVSKTEKTNFKTLSSMEDFWKFTEGSLLDGLYWKMQPSNQTEADNRSFIFYENLLLGVPRIRQLRVRNGSSSIPQDLRDEIKECYDVYSVSSEDRAPFGPRNGTAWIYTSEKDLNGSSHWGIIATYSGAGYYLDLSRTREETAAQVASLKKNVWLDRGTRATFIDFSVYNANINLFCVVRLLVEFPATGGVIPSWQFQPLKLIRYVTTFDFFLAACEIIFCFFIFYYVVEEILEIRIHKLHYFRSFWNCLDVVIVVLSVVAIGINIYRTSNVEVLLQFLEDQNTFPNFEHLAYWQIQFNNIAAVTVFFVWIKLFKFINFNRTMSQLSTTMSRCAKDLFGFAIMFFIIFLAYAQLAYLVFGTQVDDFSTFQECIFTQFRIILGDINFAEIEEANRVLGPIYFTTFVFFMFFILLNMFLAIINDTYSEVKSDLAQQKAEMELSDLIRKGYHKALVKLKLKKNTVDDISESLRQGGGKLNFDELRQDLKGKGHTDAEIEAIFTKYDQDGDQELTEHEHQQMRDDLEKEREDLDLD
  stoichiometry N: 4
